How the values were obtained:
CXCR4 (Y7A, Y12A, Y21A) = molecular target: T1, CXCR4 (Y7A, Y12A, Y21A) (Homo sapiens, UniProt P61073, Y12A/Y21A/Y7A); experiment: Calcium flux in CHO-K1 cells, FLAG-tagged CXCR4 with Y7A, Y12A and Y21A; assay type: cell-based
T1 construct: expressed in transfected cells; host or cells: CHO-K1 stably expressing Galpha15 (transient)
Protocol: Cell culture. Chinese hamster ovary K1 (CHO-K1) cells, stably transfected with the Gα15 gene in pcDNA3.1+, were cultured in a 1:1 mixture of Dulbecco's modified Eagle medium (DMEM) with Glutamax (Gibco):F12 nutrient mixture (Gibco) supplemented with 10% (w/v) fetal bovine serum (FBS) (Gibco). Stable expression of the Gα15 transgene was maintained by further supplementing the growth medium with 700 μg ml^−1 geneticin (Gibco).
Transfections. For transient transfections with the Flag-CXCR4 WT and N-terminally mutated constructs, the CHO-K1 Gα15 stable cells were lifted using 0.25% (v/v) trypsin-EDTA (Gibco), and 2×10^6 cells were re-plated onto 10 cm culture dishes. […] The cells were transfected 24 hours later using the Mirus TransIT-CHO Transfection Kit according to the manufacturers protocol, with the following exceptions: the amount of CHO transfection reagent was scaled up to 4 μl μg^−1 of DNA in the transfection mixtures, and the amount of CHO mojo reagent was scaled up to 1 μl μg^−1 of DNA in the mixtures. […]
Calcium flux. […] Fluorescence was measured at 310 K using a FlexStation2 Microplate Reader with excitation and emission wavelengths at 485 nm and 515 nm, respectively. […] CXCR4 variants with EC50 or maximum calcium response values more than three standard deviations from the mean CXCR4WT quantities were deemed significant.

CXCR41-38 = molecular target: T2, CXCR41-38 (Homo sapiens, UniProt P61073, C28A); experiment: Binding of CXCL12 variants to CXCR41-38 by 2D NMR chemical shift perturbation; details: nonlinear fitting of chemical shift perturbations, quadratic binding equation; read-out: Kd (affinity for CXCR41-38)
T2 construct: comprising the first 38 amino acids of CXCR4 preceded by a residual GlyMet dipeptide tag; made in house
Protocol: Total peptide additions differed for individual peptide titrations but ranged from 0-160 equivalencies. Spectra were processed using in-house scripts and chemical shift tracking was performed using CARA software. […] For a given interaction, residues with the largest chemical shift perturbations were fitted individually.

CXCR4 = molecular target: T3, CXCR4 (Homo sapiens, UniProt P61073); experiment: CXCR4 internalization assay in HeLa cells; assay type: cell-based; details: 80 ng/ml, 20 min, FACS surface expression
T3 construct: purchased Millipore
Protocol: CXCR4 internalization assay. HeLa cells grown on 6-cm dishes were washed twice with PBS and detached from the surface of the plate by incubating with 350 μl Cellstripper cell dissociation solution (Mediatech, Va.) for 10 min at 37° C. Cells were collected in 4 ml PBS containing 0.1% BSA (Media Tech, Va.) by centrifugation. Cell pellets were re-suspended in 1.5 ml PBS-0.1% BSA and 5×10^5 cells were transferred to a fresh 5 ml polystyrene round bottom tube (BD falcon) and washed once with PBS+0.1% BSA and re-suspended in 250 μl PBS-0.1% BSA. […] Following treatment, 4 mL cold PBS was added to each tube, cells were collected by centrifugation and then fixed by re-suspending the pellet in 500 μl 4% paraformaldehyde (made in PBS) and incubating for 15 min at 37° C. Cells were collected by centrifugation and washed once with 4 mL PBS and then twice with PBS-0.1% BSA. […] CXCR4 surface expression was analyzed by flow cytometry (FACS-CANTO; Becton Dickinson) and analysis was performed using FlowJo v.9.3 software.
CXCR4 internalization assay. […] CXCR4 surface expression was analyzed by flow cytometry (FACS-CANTO; Becton Dickinson) and analysis was performed using FlowJo v.9.3 software.

T1 sequence (P61073 whole entry Y7A/Y12A/Y21A): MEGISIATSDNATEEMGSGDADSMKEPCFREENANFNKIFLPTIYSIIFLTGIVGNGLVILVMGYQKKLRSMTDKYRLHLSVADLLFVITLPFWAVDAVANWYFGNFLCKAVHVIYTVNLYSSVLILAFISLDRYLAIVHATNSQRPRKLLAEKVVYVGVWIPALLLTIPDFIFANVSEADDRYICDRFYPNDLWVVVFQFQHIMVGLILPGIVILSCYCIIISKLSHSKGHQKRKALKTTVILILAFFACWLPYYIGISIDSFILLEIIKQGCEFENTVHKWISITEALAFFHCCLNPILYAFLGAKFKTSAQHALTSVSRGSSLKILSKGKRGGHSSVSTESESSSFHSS
T3 sequence (P61073 whole entry): as the sequence (P61073 whole entry Y7A/Y12A/Y21A) above, with A7Y, A12Y, A21Y counted along it
T2 sequence (P61073 1-38 C28A): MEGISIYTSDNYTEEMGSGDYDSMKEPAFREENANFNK

| efficacy (maximum calcium response) (CXCR4 (Y7A, Y12A, Y21A)) | Kd (CXCR41-38) [nM] | CXCR4 internalization (CXCR4) | Substance | potency (calcium response) (CXCR4 (Y7A, Y12A, Y21A); relative to CXCR4(Y21A)) |
| --- | --- | --- | --- | --- |
| ~20 % of the wildtype receptor | – | – | CXCL12WT: wild type CXCL12 (stromal cell-derived factor-1/SDF-1), SEQ ID NO:1 | did not further diminish the potency relative to CXCR4(Y21A) |
| – | 900 ± 300 | nominal internalization | CXCL122: constitutively dimeric variant of CXCL12 containing L36C/A65C mutations | – |

From patent publication US11369662B2 (The Medical College of Wisconsin, Inc., priority 2014, dated 2022)
